One assay addresses IpgC (Shigella flexneri) (UniProt P0A2U4). In words: ITC.
The target of assay [1] is IpaB^28.226 (Shigella flexneri). In words: cross-linking.
Assay [2] addresses IpaB^1.226 (Shigella flexneri). Kind of assay: cross-linking.
The target of assay [3] is FM-IpaB^N1.226 (Shigella flexneri). Kind of assay: fluorescence polarisation.
For assay [4], the target named is FM-IpaB^C1.226 (Shigella flexneri). Kind of assay: fluorescence polarisation.
Assay [5] has as its target FM-IpaB^N28.226 (Shigella flexneri). In words: fluorescence polarisation.
Assay [6] concerns the target FM-IpaB^C28.226 (Shigella flexneri). In words: fluorescence polarisation.

In the assay with IpgC (Shigella flexneri), IpaB^28.226 (domain or fragment) had an equilibrium dissociation constant (Kd) of 2960 nM, a dH of 3.55 kcal/mol and a stoichiometry N of 0.88. Moreover, the stoichiometry N in assay [1] was 2.

In the assay with IpgC (Shigella flexneri), IpaB^1.226 (domain or fragment) showed a dissociation constant Kd of 208 nM, a dH of 8.68 kcal/mol and a stoichiometry N of 1.03. The substance further came in with a stoichiometry N in assay [2] of 2.

As to “IpgC (from UniProt P0A2U4 1-155) (natural protein)”, the Kd turned out to be 199 nM in assay [3], 59.5 nM in assay [4], 411 nM in assay [5] and 501 nM in assay [6].

Source of the values: PMC3903306.
